Source: patent US20120316071A1 (published 2012)
Changes are numbered by the printed parent chain. Numbers in names are those of the source. Values belong to the binder of their own block, whether it stands above or below them.

Assays:
Recombinant Human DLL4 [1] = molecular target: T1, Recombinant Human DLL4 (human, UniProt Q9NR61 27-524); assay: ECL multispot (MSD) assay, antigen spotted on the plate, Fab in solution; blank spot of the same well 331
T1 construct: Bought from R&D Systems; also called delta-like protein 4; rHuman DLL4
Method: (§1) An 150 μl aliquot of 1% Bovine Serum Albumin (BSA) in Tris-buffered Saline Tween (TBST) was added to each well and allowed to incubate for 30 min at 20° C. followed by washing and tap drying to completely remove any residual solution. Subsequently, a 12.5 μl aliquot of 1% BSA TBST was added to each well followed by the addition of a 12.5 μl aliquot of a purified Fab. The plate was sealed and incubated for 1 hour at 20° C. with shaking
(§2) TAG-detection antibody at 25 μl was added to each well and allowed to incubate for 1 hour at 20° C. with shaking. Finally, 15 μl of Read Buffer P with Surfactant (Cat # R92PC-1, Meso Scale Discovery) was added to each well. The electrochemiluminescence was measured using a Sector Imager 2400 (Meso Scale Discovery). Data was analyzed by comparing the ECL signals for an antigen to the blank of each well. A signal to blank ratio of 4 or more was considered a “Hit” Fab.

[2] = molecular target: T2, rHuman Erythropoietin R/Fc Chimera, CF (human, UniProt P19235 25-250); assay: as above
T2 construct: Bought from R&D Systems; also called EPO R; EPO R/Fc; Fc part of the bought chimera not given
T2 sequence (looked up): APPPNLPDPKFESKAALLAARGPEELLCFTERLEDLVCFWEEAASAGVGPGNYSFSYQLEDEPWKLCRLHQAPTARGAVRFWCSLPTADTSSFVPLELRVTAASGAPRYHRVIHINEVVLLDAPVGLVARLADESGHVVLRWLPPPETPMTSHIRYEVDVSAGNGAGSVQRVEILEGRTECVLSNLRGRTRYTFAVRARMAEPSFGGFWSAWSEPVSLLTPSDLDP

[3] = molecular target: T3, rHuman IGF-1 sR, (IGF-1 sR), CF (human, UniProt P08069 31-932); assay: as above
T3 construct: Bought from R&D Systems as a soluble receptor; also called insulin-like growth factor-1 soluble receptor
Method: as §1, §2

[4] = molecular target: T4, rHuman ErbB2/Fc Chimera, CF (human, UniProt P04626 23-652); assay: as above
T4 construct: Bought from R&D Systems; also called human epidermal growth factor 2 receptor; Fc part of the bought chimera not given

[5] = molecular target: T5, rHuman EGF R/Fc Chimera, CF (human, UniProt P00533 25-645); assay: as above
T5 construct: Bought from R&D Systems; also called epidermal growth factor receptor; Fc part of the bought chimera not given

[6] = molecular target: T6, rHuman Notch-1/Fc Chimera, CF (human, UniProt P46531 19-526); assay: as above
T6 construct: Bought from R&D Systems; Fc part of the bought chimera not given

Recombinant Human DLL4 [7] = molecular target: T1, Recombinant Human DLL4; assay: ECL multispot (MSD) assay, antigen spotted on the plate, Fab in solution; blank spot of the same well 231
Method: as §1, §2

[8] = molecular target: T7, rHuman HGF R/c-MET/Fc Chimera, CF (human, UniProt P08581 25-932); assay: as above
T7 construct: Bought from R&D Systems; also called HGF R/Fc; hepatocyte growth factor receptor; Fc part of the bought chimera not given

[9] = molecular target: T2, rHuman Erythropoietin R/Fc Chimera, CF; assay: as above
Method: as §1, §2

[10] = molecular target: T3, rHuman IGF-1 sR, (IGF-1 sR), CF; assay: as above
Method: as §1, §2

[11] = molecular target: T8, rHuman P-Cadherin/Fc Chimera, CF (human, UniProt P22223 108-654); assay: as above
T8 construct: Bought from R&D Systems; Fc part of the bought chimera not given

[12] = molecular target: T4, rHuman ErbB2/Fc Chimera, CF; assay: as above
Method: as §1, §2

[13] = molecular target: T5, rHuman EGF R/Fc Chimera, CF; assay: as above
Method: as §1, §2

[14] = molecular target: T6, rHuman Notch-1/Fc Chimera, CF; assay: as above
Method: as §1, §2

[15] = molecular target: T9, rHuman CD44/Fc Chimera, CF (human, UniProt P16070 21-220); assay: as above
T9 construct: Bought from R&D Systems; Fc part of the bought chimera not given

Recombinant Human DLL4 [16] = molecular target: T1, Recombinant Human DLL4; assay: ECL multispot (MSD) assay, antigen spotted on the plate, Fab in solution; blank spot of the same well 407
Method: as §1, §2

[17] = molecular target: T7, rHuman HGF R/c-MET/Fc Chimera, CF; assay: as above
Method: as §1, §2

[18] = molecular target: T2, rHuman Erythropoietin R/Fc Chimera, CF; assay: as above
Method: as §1, §2

[19] = molecular target: T3, rHuman IGF-1 sR, (IGF-1 sR), CF; assay: as above
Method: as §1, §2

[20] = molecular target: T8, rHuman P-Cadherin/Fc Chimera, CF; assay: as above
Method: as §1, §2

[21] = molecular target: T4, rHuman ErbB2/Fc Chimera, CF; assay: as above
Method: as §1, §2

[22] = molecular target: T5, rHuman EGF R/Fc Chimera, CF; assay: as above
Method: as §1, §2

[23] = molecular target: T6, rHuman Notch-1/Fc Chimera, CF; assay: as above
Method: as §1, §2

[24] = molecular target: T9, rHuman CD44/Fc Chimera, CF; assay: as above
Method: as §1, §2

Recombinant Human DLL4 [25] = molecular target: T1, Recombinant Human DLL4; assay: ECL multispot (MSD) assay, antigen spotted on the plate, Fab in solution; blank spot of the same well 284
Method: as §1, §2

[26] = molecular target: T7, rHuman HGF R/c-MET/Fc Chimera, CF; assay: as above
Method: as §1, §2

[27] = molecular target: T3, rHuman IGF-1 sR, (IGF-1 sR), CF; assay: as above
Method: as §1, §2

[28] = molecular target: T8, rHuman P-Cadherin/Fc Chimera, CF; assay: as above
Method: as §1, §2

[29] = molecular target: T4, rHuman ErbB2/Fc Chimera, CF; assay: as above
Method: as §1, §2

[30] = molecular target: T5, rHuman EGF R/Fc Chimera, CF; assay: as above
Method: as §1, §2

[31] = molecular target: T6, rHuman Notch-1/Fc Chimera, CF; assay: as above
Method: as §1, §2

[32] = molecular target: T9, rHuman CD44/Fc Chimera, CF; assay: as above
Method: as §1, §2

T7 sequence (P08581 25-932, change not shown): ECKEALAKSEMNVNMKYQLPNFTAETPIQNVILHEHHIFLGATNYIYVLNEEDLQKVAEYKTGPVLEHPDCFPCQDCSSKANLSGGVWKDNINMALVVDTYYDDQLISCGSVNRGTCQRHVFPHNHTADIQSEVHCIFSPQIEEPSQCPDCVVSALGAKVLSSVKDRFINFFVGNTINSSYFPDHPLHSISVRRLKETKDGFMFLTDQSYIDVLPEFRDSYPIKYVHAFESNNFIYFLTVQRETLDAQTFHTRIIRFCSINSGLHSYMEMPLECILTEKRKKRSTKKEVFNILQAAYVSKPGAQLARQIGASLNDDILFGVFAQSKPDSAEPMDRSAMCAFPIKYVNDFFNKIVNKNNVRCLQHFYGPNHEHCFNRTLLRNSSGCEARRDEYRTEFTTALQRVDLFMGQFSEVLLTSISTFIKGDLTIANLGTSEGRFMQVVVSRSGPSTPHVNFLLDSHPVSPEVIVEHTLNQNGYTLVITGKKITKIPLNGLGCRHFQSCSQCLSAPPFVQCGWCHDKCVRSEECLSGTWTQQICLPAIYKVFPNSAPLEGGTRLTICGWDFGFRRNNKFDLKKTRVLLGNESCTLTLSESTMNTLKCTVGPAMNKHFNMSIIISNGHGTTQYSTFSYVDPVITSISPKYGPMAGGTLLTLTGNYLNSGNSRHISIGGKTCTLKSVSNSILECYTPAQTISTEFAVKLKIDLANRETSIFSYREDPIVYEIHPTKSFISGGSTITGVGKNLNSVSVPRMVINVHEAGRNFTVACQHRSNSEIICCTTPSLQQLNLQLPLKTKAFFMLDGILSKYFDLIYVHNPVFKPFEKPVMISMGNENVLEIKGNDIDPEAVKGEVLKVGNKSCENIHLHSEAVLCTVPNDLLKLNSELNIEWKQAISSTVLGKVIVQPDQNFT

B1: Fab VH1-46_IGHD6-6*01_IGHJ1*01 S102A/S103P/S104F/H111F (APFF) & L6_IGKJ1*01 S31E (Fab, V domains shown)
VH: QVQLVQSGAEVKKPGASVKVSCKASGYTFTSYYMHWVRQAPGQGLEWMGIINPSGGSTSYAQKFQGRVTMTRDTSTSTVYMELSSLRSEDTAVYYCAREEYAPFSAEYFQFWGQGTLVTVSS
VL: EIVLTQSPATLSLSPGERATLSCRASQSVSEYLAWYQQKPGQAPRLLIYDASNRATGIPARFSGSGSGTDFTLTISSLEPEDFAVYYCQQRSNWPPWTFGQGTKVEIKR
notes: Tested as an E. coli Fab; The heavy chain carries CH1 with His6 and Flag tags from plasmid A, the light chain a kappa CL from plasmid C; also called APFF / S31E; H:APFF & L6_IGKJ1*01 S31E
ECL signal (Recombinant Human DLL4 [1]): 171000
ECL signal [2]: 441
ECL signal [3]: 367
ECL signal [4]: 313
ECL signal [5]: 297
ECL signal [6]: 460

B2: Fab VH1-46_IGHD6-6*01_IGHJ1*01 S102A/S103P/S104F/H111F (APFF) & L6_IGKJ1*01 S31G (Fab, V domains shown)
VH: B1 VH
VL: B1 VL with E31G
notes: Tested as an E. coli Fab; The heavy chain carries CH1 with His6 and Flag tags from plasmid A, the light chain a kappa CL from plasmid C; also called APFF / S31G; H:APFF & L6_IGKJ1*01 S31G
ECL signal (Recombinant Human DLL4 [7]): 65500
ECL signal [8]: 378
ECL signal [9]: 414
ECL signal [10]: 301
ECL signal [11]: 384
ECL signal [12]: 311
ECL signal [13]: 391
ECL signal [14]: 426
ECL signal [15]: 381

The next lines start with the values.

ECL signal (Recombinant Human DLL4 [16]): 165000
ECL signal [17]: 329
ECL signal [18]: 548
ECL signal [19]: 415
ECL signal [20]: 379
ECL signal [21]: 392
ECL signal [22]: 390
ECL signal [23]: 383
ECL signal [24]: 438
B3: Fab VH1-46_IGHD6-6*01_IGHJ1*01 S102A/S103P/S104F/H111F (APFF) & L6_IGKJ1*01 S31Q (Fab, V domains shown)
VH: B1 VH
VL: B1 VL with E31Q
notes: Tested as an E. coli Fab; The heavy chain carries CH1 with His6 and Flag tags from plasmid A, the light chain a kappa CL from plasmid C; also called APFF / S31Q; H:APFF & L6_IGKJ1*01 S31Q

ECL signal (Recombinant Human DLL4 [25]): 188000
ECL signal [26]: 197
ECL signal [27]: 293
ECL signal [28]: 361
ECL signal [29]: 236
ECL signal [30]: 320
ECL signal [31]: 351
ECL signal [32]: 445
B4: Fab VH1-46_IGHD6-6*01_IGHJ1*01 S102A/S103P/S104F/H111F (APFF) & L6_IGKJ1*01 S31Y (Fab, V domains shown)
VH: B1 VH
VL: B1 VL with E31Y
notes: Tested as an E. coli Fab; The heavy chain carries CH1 with His6 and Flag tags from plasmid A, the light chain a kappa CL from plasmid C; also called APFF / S31Y; H:APFF & L6_IGKJ1*01 S31Y
